Assay results published in publication PMC4556779 (Redox Biology, 2015).

Target: the molecule itself
Assay: SEC

B1: sulfinylated Myc-Tsa1 (CP-SO2H), from H2O2-exposed cells (enzyme, S. cerevisiae, UniProt P34760 1-196, looked up)
chain: MVAQVQKQAPTFKKTAVVDGVFDEVSLDKYKGKYVVLAFIPLAFTFVCPTEIIAFSEAAKKFEEQGAQVLFASTDSEYSLLAWTNIPRKEGGLGPINIPLLADTNHSLSRDYGVLIEEEGVALRGLFIIDPKGVIRHITINDLPVGRNVDEALRLVEAFQWTDKNGTVLPCNWTPGAATIKPTVEDSKEYFEAANK
modifications: sulfinic acid (CP-SO2H) at the peroxidatic Cys (CP, C48)
stoichiometry N: ~20
